In PMC9573744, “Structural Insight of KSIII (β-Ketoacyl-ACP Synthase)-like Acyltransferase ChlB3 in the Biosynthesis of Chlorothricin” (Molecules, 2022):

Biological target: the molecule itself
Experiment: crystal structure; sitting drop vapor diffusion, 0.1 M HEPS pH 7.0, 1.4 M sodium acetate-trihydrate, 20 °C; space group P212121, four dimers per asymmetric unit; 3.1 Å

B1: ChlB3 (enzyme, Streptomyces antibioticus DSM 40725)
chain: MRTPDIFIKATGRFLPETVSVEWAVEQGHYSAEDAELHELGGAAVAGDTPAPDMALWAAQQAVKRCGHRPEDLGLLLYVDSWHQGPDGWQPQYYLQRHLVGGDVLAVEIQQGCNGMFSALELAAAHLRAGPRPGSALVVAADNFGTPLFDRWTTGPGYIAGDGAGAVVLTTEPGFARLLAVRSLAVPEAEQMHRGAEPLFPPGATIGRPLNFTSRNAAFRELSLTEGLGTGALMRVHQRTLEVVEKTLSEAGITLGDITRVAYMNFSREIVEQRCMAALGLPMSASTWEFGRKLGHLGASDQVVALDELVTTGELGPGDHLLMLGMGPGVTLSCAVVKVLTPAPWSD
notes: ChlB3 acyltransferase of Streptomyces antibioticus DSM 40725, amplified from genomic DNA; chlB3 of 1044 bp cloned into pET28a (NheI/HindIII); also called KSIII (β-ketoacyl-ACP synthase)-like acyltransferase ChlB3; source: E. coli BL21 (DE3), purified (Nickel-NTA, Superdex-200 gel filtration)
stoichiometry N: 2
